Experiments:
[1] = test system: FLAG-tagged JNK1(Tyr-320-His) from the pCMV-FLAG vector, expressed in COS cells
[2] = test system: FLAG-tagged JNK1(Leu-131-Arg) from the pCMV-FLAG vector, expressed in COS cells
[3] = test system: FLAG-tagged wild-type JNK1 from pCMV-FLAG-JNK1, expressed in COS cells
[4] = test system: FLAG-tagged JNK1(Arg-309-Trp) from the pCMV-FLAG vector, expressed in COS cells
Sequence of FLAG-tagged JNK1(Arg-309-Trp) from the pCMV-FLAG vector, expressed in COS cells (chain, as listed by the source R309W): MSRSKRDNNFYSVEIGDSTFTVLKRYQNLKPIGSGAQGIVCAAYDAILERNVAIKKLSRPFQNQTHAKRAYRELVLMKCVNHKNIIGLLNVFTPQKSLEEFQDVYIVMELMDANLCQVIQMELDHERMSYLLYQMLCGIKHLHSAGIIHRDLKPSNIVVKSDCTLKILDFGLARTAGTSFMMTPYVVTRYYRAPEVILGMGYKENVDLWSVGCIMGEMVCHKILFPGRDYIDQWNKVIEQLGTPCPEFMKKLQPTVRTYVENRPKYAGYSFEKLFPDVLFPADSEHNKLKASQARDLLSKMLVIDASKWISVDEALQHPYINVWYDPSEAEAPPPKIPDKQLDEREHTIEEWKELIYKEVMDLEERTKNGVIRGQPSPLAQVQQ

Sequence of FLAG-tagged JNK1(Tyr-320-His) from the pCMV-FLAG vector, expressed in COS cells (chain, as listed by the source Y320H): as the sequence (chain, as listed by the source R309W) above, with W309R, Y320H counted along it
Sequence of FLAG-tagged JNK1(Leu-131-Arg) from the pCMV-FLAG vector, expressed in COS cells (chain, as listed by the source L131R): as the sequence (chain, as listed by the source R309W) above, with L131R, W309R counted along it
Sequence of FLAG-tagged wild-type JNK1 from pCMV-FLAG-JNK1, expressed in COS cells (chain, as listed by the source): as the sequence (chain, as listed by the source R309W) above, with W309R counted along it

Question: Which results are given for “GST-MKK4(ED), constitutively active form of MKK4”?
Answer: phosphorylation of immunoprecipitated FLAG-JNK by GST-MKK4(ED), in vitro kinase assay with [32P]ATP, autoradiography [1]: the negligible amount of radioactive phosphate incorporated into any of the three JNK mutants was not increased by the presence of active MKK4; phosphorylation of immunoprecipitated FLAG-JNK by GST-MKK4(ED), in vitro kinase assay with [32P]ATP, autoradiography [2]: the negligible amount of radioactive phosphate incorporated into any of the three JNK mutants was not increased by the presence of active MKK4; phosphorylation of immunoprecipitated FLAG-JNK by GST-MKK4(ED), in vitro kinase assay with [32P]ATP, autoradiography [3]: The presence of active MKK4 increased the phosphorylation of wildtype JNK relative to the autophosphorylation that occurred in the absence of any upstream activator protein; phosphorylation of immunoprecipitated FLAG-JNK by GST-MKK4(ED), in vitro kinase assay with [32P]ATP, autoradiography [4]: the negligible amount of radioactive phosphate incorporated into any of the three JNK mutants was not increased by the presence of active MKK4

— patent US20080044815
